# Data as given in patent US20140087995A1 (published 2014).
# Numbered stars: 1 amine (or outer) side, 2 acyl side, 3 side chain; on linkers, the order of the positions; unused ones are H or OH. Bridge positions count the residues as written; N and C are the ends. Side chains are listed from the residue outwards. Ends that are not written are not given here. * marks the point of attachment. C20 diacid = O=C(O)CCCCCCCCCCCCCCCCCCC(=O)*; γGlu = O=C(O)[C@H](CCC(=O)[*:2])N[*:1]; AEEA = NCCOCCOCC(=O)O
# T1: human calcitonin receptor (human, UniProt P30988 25-474)
# T1 construct: whole, on cells; Used as cell membranes; also called hCTR; hCT
# T1 sequence (looked up): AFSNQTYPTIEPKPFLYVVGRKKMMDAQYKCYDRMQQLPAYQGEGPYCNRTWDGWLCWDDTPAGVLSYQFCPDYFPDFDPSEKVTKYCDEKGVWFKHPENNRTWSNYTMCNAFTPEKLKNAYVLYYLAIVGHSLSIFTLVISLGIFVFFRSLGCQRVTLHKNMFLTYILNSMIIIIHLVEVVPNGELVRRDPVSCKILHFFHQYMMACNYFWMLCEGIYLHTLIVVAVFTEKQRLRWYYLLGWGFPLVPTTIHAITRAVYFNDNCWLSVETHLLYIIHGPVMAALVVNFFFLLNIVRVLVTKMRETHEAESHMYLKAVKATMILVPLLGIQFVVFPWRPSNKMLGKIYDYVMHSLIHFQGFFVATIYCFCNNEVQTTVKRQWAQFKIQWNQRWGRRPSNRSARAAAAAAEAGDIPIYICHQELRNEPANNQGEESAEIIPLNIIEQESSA
# Experiments:
# [1] = target: T1, human calcitonin receptor; test: ratio of hCTR IC50 to hAmylin-R IC50 (reference: human amylin receptor)
# Procedure: The resulting pellet was resuspended, homogenized and centrifuged (20.000 rpm, 15 min) in a buffer containing 20 mM Na-HEPES and 0.1 mM EDTA (pH 7.4, buffer 2). The resulting pellet was resuspended in buffer 2 and protein concentration was measured (BCA protein Assay, Pierce). The homogenate was kept cold during the whole procedure. The membranes were kept at −80° C. until use. The assay was performed in a 384 well Optiplate (PerkinElmer) in a total volume of 40 ul. Membranes were mixed with SPA beads. Final concentration of membranes 35 ng/μL final and SPA beads was 0.05 mg/well. Test-compounds were dissolved in DMSO and further diluted in assay buffer (50 mM Hepes, pH 7.4, 1 mM CaCl2, 5 mM MgCl₂, 0.1% OA and 0.02% Tween20). […] The final mixture was incubated with shaking at 400 rpm for 120 min at 25° C. prior to centrifugation (1500 rpm, 10 min). Samples were analyzed on TopCounter™ (Packard). The IC₅₀ was calculated using (one site binding competition analysis) GraphPad Prism5 as a measure of receptor affinity.
# Membranes were prepared in the following way; the cells were rinsed with PBS and incubated with Versene for approximately 5 min before harvesting. The cells were flushed with PBS and the cell-suspension was centrifuged for 5 min at 1000 rpm. Cells were homogenized (Ultrathurrax) in a buffer containing 20 mM Na-HEPES and 10 mM EDTA (pH 7.4) and centrifuged at 20.000 rpm for 15 min. The resulting pellet was resuspended, homogenized and centrifuged (20.000 rpm, 15 min) in a buffer containing 20 mM Na-HEPES and 0.1 mM EDTA (pH 7.4, buffer 2). The resulting pellet was resuspended in buffer 2 and protein concentration was measured (BCA protein Assay, Pierce). The homogenate was kept cold during the whole procedure. The membranes were kept at −80° C. until use. Assay was performed in a 384 well Optiplate (PerkinElmer) in a total volume of 40 ul. Membranes were mixed with SPA beads.
# [2] = target: T1, human calcitonin receptor; test: SPA competition on BHK cell membranes, 125I-calcitonin as radioligand (Assay VII)
# Procedure: Membranes were prepared in the following way; the cells were rinsed with PBS and incubated with Versene for approximately 5 min before harvesting. The cells were flushed with PBS and the cell-suspension was centrifuged for 5 min at 1000 rpm. Cells were homogenized (Ultrathurrax) in a buffer containing 20 mM Na-HEPES and 10 mM EDTA (pH 7.4) and centrifuged at 20.000 rpm for 15 min. The resulting pellet was resuspended, homogenized and centrifuged (20.000 rpm, 15 min) in a buffer containing 20 mM Na-HEPES and 0.1 mM EDTA (pH 7.4, buffer 2). The resulting pellet was resuspended in buffer 2 and protein concentration was measured (BCA protein Assay, Pierce). The homogenate was kept cold during the whole procedure. The membranes were kept at −80° C. until use. Assay was performed in a 384 well Optiplate (PerkinElmer) in a total volume of 40 ul. Membranes were mixed with SPA beads. Final concentration of membranes 35 ng/μL final and Final concentration of SPA beads was 0.05 mg/well. Test-compounds were dissolved in DMSO and further diluted in assay buffer (50 mM Hepes, pH 7.4, 1 mM CaCl2, 5 mM MgCl₂, 0.1% OA and 0.02% Tween20). […] The final mixture was incubated for 120 min with shaking at 400 rpm at 25° C. prior to centrifugation (1500 rpm, 10 min). Samples were analyzed on TopCounter™ (Packard). The […] was calculated using (one site binding competition analysis) GraphPad Prism5 as a measure of receptor affinity.
Binder,Ratio hCT/hAmylin binding [1],IC50 [2]
"K([AEEA-γGlu-C20 diacid])CNTATCATQRLAAFLRHSSPNFGAIPSSTPVGSNTY-NH2 (disulfide 2-7; N-terminus assumed; SMILES CC[C@H](C)[C@H](NC(=O)[C@H](C)NC(=O)CNC(=O)[C@H](Cc1ccccc1)NC(=O)[C@H](CC(N)=O)NC(=O)[C@@H]1CCCN1C(=O)[C@H](CO)NC(=O)[C@H](CO)NC(=O)[C@H](Cc1c[nH]cn1)NC(=O)[C@H](CCCNC(=N)N)NC(=O)[C@H](CC(C)C)NC(=O)[C@H](Cc1ccccc1)NC(=O)[C@H](C)NC(=O)[C@H](C)NC(=O)[C@H](CC(C)C)NC(=O)[C@H](CCCNC(=N)N)NC(=O)[C@H](CCC(N)=O)NC(=O)[C@@H](NC(=O)[C@H](C)NC(=O)[C@@H]1CSSC[C@H](NC(=O)[C@@H](N)CCCCNC(=O)COCCOCCNC(=O)CC[C@H](NC(=O)CCCCCCCCCCCCCCCCCCC(=O)O)C(=O)O)C(=O)N[C@@H](CC(N)=O)C(=O)N[C@@H]([C@@H](C)O)C(=O)N[C@@H](C)C(=O)N[C@@H]([C@@H](C)O)C(=O)N1)[C@@H](C)O)C(=O)N1CCC[C@H]1C(=O)N[C@@H](CO)C(=O)N[C@@H](CO)C(=O)N[C@H](C(=O)N1CCC[C@H]1C(=O)N[C@H](C(=O)NCC(=O)N[C@@H](CO)C(=O)N[C@@H](CC(N)=O)C(=O)N[C@H](C(=O)N[C@@H](Cc1ccc(O)cc1)C(N)=O)[C@@H](C)O)C(C)C)[C@@H](C)O, also called compound 72)",247,42.4 nM
"K([AEEA-γGlu-C20 diacid])CNTATCATQRLARFLRHSSPNFGAIPSSTPVGSNTY-NH2 (disulfide 2-7; N-terminus assumed; SMILES CC[C@H](C)[C@H](NC(=O)[C@H](C)NC(=O)CNC(=O)[C@H](Cc1ccccc1)NC(=O)[C@H](CC(N)=O)NC(=O)[C@@H]1CCCN1C(=O)[C@H](CO)NC(=O)[C@H](CO)NC(=O)[C@H](Cc1c[nH]cn1)NC(=O)[C@H](CCCNC(=N)N)NC(=O)[C@H](CC(C)C)NC(=O)[C@H](Cc1ccccc1)NC(=O)[C@H](CCCNC(=N)N)NC(=O)[C@H](C)NC(=O)[C@H](CC(C)C)NC(=O)[C@H](CCCNC(=N)N)NC(=O)[C@H](CCC(N)=O)NC(=O)[C@@H](NC(=O)[C@H](C)NC(=O)[C@@H]1CSSC[C@H](NC(=O)[C@@H](N)CCCCNC(=O)COCCOCCNC(=O)CC[C@H](NC(=O)CCCCCCCCCCCCCCCCCCC(=O)O)C(=O)O)C(=O)N[C@@H](CC(N)=O)C(=O)N[C@@H]([C@@H](C)O)C(=O)N[C@@H](C)C(=O)N[C@@H]([C@@H](C)O)C(=O)N1)[C@@H](C)O)C(=O)N1CCC[C@H]1C(=O)N[C@@H](CO)C(=O)N[C@@H](CO)C(=O)N[C@H](C(=O)N1CCC[C@H]1C(=O)N[C@H](C(=O)NCC(=O)N[C@@H](CO)C(=O)N[C@@H](CC(N)=O)C(=O)N[C@H](C(=O)N[C@@H](Cc1ccc(O)cc1)C(N)=O)[C@@H](C)O)C(C)C)[C@@H](C)O, also called compound 64)",126,56 nM
"K([AEEA-γGlu-C20 diacid])CNTATCATQRLANFLRHSSPNFGAIPSSTNVGRNTY-NH2 (disulfide 2-7; N-terminus assumed; SMILES CC[C@H](C)[C@H](NC(=O)[C@H](C)NC(=O)CNC(=O)[C@H](Cc1ccccc1)NC(=O)[C@H](CC(N)=O)NC(=O)[C@@H]1CCCN1C(=O)[C@H](CO)NC(=O)[C@H](CO)NC(=O)[C@H](Cc1c[nH]cn1)NC(=O)[C@H](CCCNC(=N)N)NC(=O)[C@H](CC(C)C)NC(=O)[C@H](Cc1ccccc1)NC(=O)[C@H](CC(N)=O)NC(=O)[C@H](C)NC(=O)[C@H](CC(C)C)NC(=O)[C@H](CCCNC(=N)N)NC(=O)[C@H](CCC(N)=O)NC(=O)[C@@H](NC(=O)[C@H](C)NC(=O)[C@@H]1CSSC[C@H](NC(=O)[C@@H](N)CCCCNC(=O)COCCOCCNC(=O)CC[C@H](NC(=O)CCCCCCCCCCCCCCCCCCC(=O)O)C(=O)O)C(=O)N[C@@H](CC(N)=O)C(=O)N[C@@H]([C@@H](C)O)C(=O)N[C@@H](C)C(=O)N[C@@H]([C@@H](C)O)C(=O)N1)[C@@H](C)O)C(=O)N1CCC[C@H]1C(=O)N[C@@H](CO)C(=O)N[C@@H](CO)C(=O)N[C@H](C(=O)N[C@@H](CC(N)=O)C(=O)N[C@H](C(=O)NCC(=O)N[C@@H](CCCNC(=N)N)C(=O)N[C@@H](CC(N)=O)C(=O)N[C@H](C(=O)N[C@@H](Cc1ccc(O)cc1)C(N)=O)[C@@H](C)O)C(C)C)[C@@H](C)O, also called compound 78)",60.7,36.5 nM
"K([AEEA-γGlu-C20 diacid])CNTATCATQRLARFLRHSSPNFGAIPSSTNVGSNTY-NH2 (disulfide 2-7; N-terminus assumed; SMILES CC[C@H](C)[C@H](NC(=O)[C@H](C)NC(=O)CNC(=O)[C@H](Cc1ccccc1)NC(=O)[C@H](CC(N)=O)NC(=O)[C@@H]1CCCN1C(=O)[C@H](CO)NC(=O)[C@H](CO)NC(=O)[C@H](Cc1c[nH]cn1)NC(=O)[C@H](CCCNC(=N)N)NC(=O)[C@H](CC(C)C)NC(=O)[C@H](Cc1ccccc1)NC(=O)[C@H](CCCNC(=N)N)NC(=O)[C@H](C)NC(=O)[C@H](CC(C)C)NC(=O)[C@H](CCCNC(=N)N)NC(=O)[C@H](CCC(N)=O)NC(=O)[C@@H](NC(=O)[C@H](C)NC(=O)[C@@H]1CSSC[C@H](NC(=O)[C@@H](N)CCCCNC(=O)COCCOCCNC(=O)CC[C@H](NC(=O)CCCCCCCCCCCCCCCCCCC(=O)O)C(=O)O)C(=O)N[C@@H](CC(N)=O)C(=O)N[C@@H]([C@@H](C)O)C(=O)N[C@@H](C)C(=O)N[C@@H]([C@@H](C)O)C(=O)N1)[C@@H](C)O)C(=O)N1CCC[C@H]1C(=O)N[C@@H](CO)C(=O)N[C@@H](CO)C(=O)N[C@H](C(=O)N[C@@H](CC(N)=O)C(=O)N[C@H](C(=O)NCC(=O)N[C@@H](CO)C(=O)N[C@@H](CC(N)=O)C(=O)N[C@H](C(=O)N[C@@H](Cc1ccc(O)cc1)C(N)=O)[C@@H](C)O)C(C)C)[C@@H](C)O, also called compound 82)",140,88.8 nM
